Assay results: patent EP2415863A1, “Mutant glucose oxidase” (B.R.A.I.N., priority 2010, dated 2012)

What was measured:
Type in all cases: biochemical, Aspergillus niger
[1] = substrate: OC[C@H]1OC(O)[C@H](O)[C@@H](O)[C@@H]1O; experiment: Kinetic constants by ABTS assay, wt GOx; conditions: other: wt GOx, 2.5-100 mM glucose
Source text: (§1) For detection of GOx activity the ABTS assay was used. 2,2'-azino-bis(3-ethylbenzthiazoline-6-sulphonic acid (ABTS) is commonly used as a substrate with hydrogen peroxide for a peroxidase generating enzyme. Its use allows the reaction kinetics of peroxidases to be followed, to indirectly follow the reaction kinetics of a hydrogen peroxide-producing enzyme or to quantify the amount of hydrogen peroxide in a sample [vanGijlswijk, R.P.M., et al., Fluorochrome-labeled tyramides: Use in immunocytochemistry and fluorescence in situ hybridization. Journal of Histochemistry & Cytochemistry, 1997. 45(3): p. 375-382].
(§2) The kinetic constants were determined using the Specord 200 from (Analytik Jena, Germany) and the ABTS assay [Zhu, Z.W., et al. 2006, Making glucose oxidase fit for biofuel cell applications by directed protein evolution. Biosensors & Bioelectronics, 21(11): 2046-2051]. The measurements were performed in 1 ml of reaction volume and 1 cm light pathway cuvettes, using 2.5, 5, 10, 25, 50 and 100 mM glucose. The data were fitted using Origin 6 (OriginLab Corporation, Northampton).

[2] = substrate: OC[C@H]1OC(O)[C@H](O)[C@@H](O)[C@@H]1O; experiment: Kinetic constants by ABTS assay, parent GOx B11; conditions: other: Parent GOx (B11), 2.5-100 mM glucose
Source text: as §1, §2

[3] = substrate: OC[C@H]1OC(O)[C@H](O)[C@@H](O)[C@@H]1O; experiment: Kinetic constants by ABTS assay, GOx mutant M12; conditions: other: M12, 2.5-100 mM glucose
Source text: as §1, §2

B1: Aspergillus niger glucose oxidase (GOx), wild type, SEQ ID NO: 3 (Aspergillus niger) (protein)
chain: SNGIEASLLTDPKDVSGRTVDYIIAGGGLTGLTTAARLTENPNISVLVIESGSYESDRGPIIEDLNAYGDIFGSSVDHAYETVELATNNQTALIRSGNGLGGSTLVNGGTWTRPHKAQVDSWETVFGNEGWNWDNVAAYSLQAERARAPNAKQIAAGHYFNASCHGVNGTVHAGPRDTGDDYSPIVKALMSAVEDRGVPTKKDFGCGDPHGVSMFPNTLHEDQVRSDAAREWLLPNYQRPNLQVLTGQYVGKVLLSQNGTTPRAVGVEFGTHKGNTHNVYAKHEVLLAAGSAVSPTILEYSGIGMKSILEPLGIDTVVDLPVGLNLQDQTTATVRSRITSAGAGQGQAAWFATFNETFGDYSEKAHELLNTKLEQWAEEAVARGGFHNTTALLIQYENYRDWIVNHNVAYSELFLDTAGVASFDVWDLLPFTRGYVHILDKDPYLHHFAYDPQYFLNELDLLGQAAATQLARNISNSGAMQTYFAGETIPGDNLAYDADLSAWTEYIPYHFRPNYHGVGTCSMMPKEMGGVVDNAARVYGVQGLRVIDGSIPPTQMSSHVMTVFYAMALKISDAILEDYASMQ
notes: made in house; host or cells: Saccharomyces cerevisiae (pYES2 vector)
Work on B1 yielded a Km [1] of 22.0 mM mM.

B2: Aspergillus niger glucose oxidase (GOx) parent mutant B11, T30V, I94V, SEQ ID NO: 5 (Aspergillus niger; I116V/T52V) (protein)
chain: SNGIEASLLTDPKDVSGRTVDYIIAGGGLVGLTTAARLTENPNISVLVIESGSYESDRGPIIEDLNAYGDIFGSSVDHAYETVELATNNQTALVRSGNGLGGSTLVNGGTWTRPHKAQVDSWETVFGNEGWNWDNVAAYSLQAERARAPNAKQIAAGHYFNASCHGVNGTVHAGPRDTGDDYSPIVKALMSAVEDRGVPTKKDFGCGDPHGVSMFPNTLHEDQVRSDAAREWLLPNYQRPNLQVLTGQYVGKVLLSQNGTTPRAVGVEFGTHKGNTHNVYAKHEVLLAAGSAVSPTILEYSGIGMKSILEPLGIDTVVDLPVGLNLQDQTTATVRSRITSAGAGQGQAAWFATFNETFGDYSEKAHELLNTKLEQWAEEAVARGGFHNTTALLIQYENYRDWIVNHNVAYSELFLDTAGVASFDVWDLLPFTRGYVHILDKDPYLHHFAYDPQYFLNELDLLGQAAATQLARNISNSGAMQTYFAGETIPGDNLAYDADLSAWTEYIPYHFRPNYHGVGTCSMMPKEMGGVVDNAARVYGVQGLRVIDGSIPPTQMSSHVMTVFYAMALKISDAILEDYASMQ
notes: made in house; host or cells: Saccharomyces cerevisiae (pYES2 plasmid B11 GOx)
In the case of B2, the Km [2] is reported as 16.0 mM mM and the kcat [2] is reported as 80.0 S-^1 S-^1.

B3: Aspergillus niger glucose oxidase (GOx) variant M12, N2Y, K13E, T30V, I94V, K152R, SEQ ID NO: 1 (Aspergillus niger; I116V/K174R/K35E/N24Y/T52V) (protein)
chain: SYGIEASLLTDPEDVSGRTVDYIIAGGGLVGLTTAARLTENPNISVLVIESGSYESDRGPIIEDLNAYGDIFGSSVDHAYETVELATNNQTALVRSGNGLGGSTLVNGGTWTRPHKAQVDSWETVFGNEGWNWDNVAAYSLQAERARAPNARQIAAGHYFNASCHGVNGTVHAGPRDTGDDYSPIVKALMSAVEDRGVPTKKDFGCGDPHGVSMFPNTLHEDQVRSDAAREWLLPNYQRPNLQVLTGQYVGKVLLSQNGTTPRAVGVEFGTHKGNTHNVYAKHEVLLAAGSAVSPTILEYSGIGMKSILEPLGIDTVVDLPVGLNLQDQTTATVRSRITSAGAGQGQAAWFATFNETFGDYSEKAHELLNTKLEQWAEEAVARGGFHNTTALLIQYENYRDWIVNHNVAYSELFLDTAGVASFDVWDLLPFTRGYVHILDKDPYLHHFAYDPQYFLNELDLLGQAAATQLARNISNSGAMQTYFAGETIPGDNLAYDADLSAWTEYIPYHFRPNYHGVGTCSMMPKEMGGVVDNAARVYGVQGLRVIDGSIPPTQMSSHVMTVFYAMALKISDAILEDYASMQ
notes: made in house; host or cells: Saccharomyces cerevisiae (pYES2)
For B3, the Km [3] was 18.1 mM mM and the kcat [3] was 150 s-1 s-1.
